Experiments:
[1] = target: JR-CSF gp120 N276A (HIV-1) (UniProt P20871); assay: cell-based or functional assay
[2] = target: ΔRSC3; assay: method not given
[3] = target: JR-CSF gp120 D279A (HIV-1) (UniProt P20871); assay: cell-based or functional assay

VRC01 (antibody)
neutralization potency, JR-CSF pseudovirus [1]: 4 fold

VRC-PG04b (antibody)
fold less binding than to RSC3 [2]: > 100 fold

VRC-PG-04 (antibody)
neutralization potency compared to wildtype, JRCSF pseudovirus entry [3]: < 10%
